Reference: the DeepSol protein solubility set

Assay: soluble on expression in E. coli; label from the status in PepcDB or PDB records

Row | Sequence | soluble on expression in E. coli
1 | MRRRSNRQYVDLSYFRETADALLFDVETNSREFTNEINTVKEEKAKWDERTPQGYTAKPISFEGADIWCSWICTVPGPRGSPWEGGEYEVSVNFHKWPIIPPICEFKTPLHHPNVDLRGSIYLKMLEQEHWSSETSLKKLLREISNLLATPDLTQAANIEAWMEYENQRENYEAKARAYAWTVNPNAVGYMEVSENSGIQRETAKAKLAVQNGAMESDEDDDDLPIDIEN | not soluble
2 | MPVVYKRILLKLSGEALMGDGHYGIDRAVVEHIVVEVAGVLQLGVEVAIVVGGGNIFRGMKSAGDGMDRVTADYMGMLATTMNALALHDAMRRNGVVSRVQSALRIDQVVEPYVRGKALRYLDERKVVVFAAGTGNPFFTTDTAAALRGMEMNANIVLKATKVDGIYTSDPLKNKDAQRFQSLTFDEAISKNLQVMDATALTLCRDQKLPINVFSIFKTGALKRVIMGEDEGTSVFV | not soluble
3 | MNYGFVKVAAAVPHVKVADCKFNVERIESQIAIAEGKGVQIIVFPEMSITGYTCGDLFGQQILLEEAEMGLMQILNNTRQLDIISIVGMPVVVNSTVINAAVVIQKGKVLGVAAKTYLPNYKEFYEQRWFTSALQLTEDTVRLCGQIVPIGANLLFETSDTTFGIEICEDLWATIPPSSSLALQGAEIIFNMSADNEGIGKHHYLCSLISQQSARCIAGYVFSSCGFGESTTDVVFAGNGLIYENGSLLARSKRFCMEEQLIISEIDVERIRAERRINTTFAASQGNPGDKKAISVATEFVNSKELTLTRDFNSHPFVPQGAELDEHCEEVFSIQIAGLAQRLVHTKAKTAVVGISGGLDSTLALLVCVKTFDKLGLPRKDILGVTMPGFGTTDRTYNNAIDLMKSLGISIREISIQDACIQHFKDIDHDINVHDVTYENSQARERTQILMDIANQTWGMVVGTGDLSELALGWATYNGDHMSMYGVNGSIPKTLVKYLVQWVAENDMDEDAKATLLDIVDTPISPELIPADENGEIKQKTEDLVGPYELHDFFLYYFLRFGFRPSKIYYLANIAFKDVYDKETIKKWLSTFFRRFFNQQFKRSCLPDGPKVGSISISPRGDWRMPSDASSTIWLKEIEDLLEHHHHHH | not soluble
4 | MIKLENELLLVEMKEAGAELTRIFHKDTKLEYLWNADSTFWGRHSPVLFPTVGRLVEDTYFVDGNPYHLGQHGFARDRDFKVVEHTENAVRFELDADEDSLTIYPYKFKLSIIYTIEKDSVAVSYEVENTDNKRIYFSIGAHPAFNLPLADGTTFEDYYLDFGTEENLETLCLEGPYRSGKIEKVVNEPARYLPLSYDLFKNDALIFEGLKQKEITIKSDKTPHFVKVSFPEFPFVGVWTAKAGTPFLCIEPWYGIADGAGKSVELRDKAGIEHLEPEAVFASEYKITIGLEHHHHHH | not soluble
5 | SRLMNEIRETRGLAYSVYSTFAPYQEKGPFEIGLQTKKEQAEQALQLTQKTLRDFVEQGPTEEELQAARQNIVGGFPLRIDSNQKILGYLGVIGFYDLPLTYLEDYVKAVEKVTVAQIRDAFKRRIDPAGMVTVVVGA | not soluble
6 | MGSDKIHHHHHHMTSICICDDEKQQRNMLNKIITREMDLWGYPYQIKEYSNGESLVYNLEHENYYIDIIFLDIELGKSNGVDIAKTIRKHSKDTIIIFVTGFSDYVFHGYDVGALNYILKPYKTEKICKVLKEALKKLEQWKENFITVQIGTNLCKINTKDILYFKSELRKLTVVTFDKTLEYYGKLNDMETVLPSNFIRTHQRYIVNLNHVDSITQTYAKVQNEKIPISRKKYQEVVGKFTRYMLES | not soluble
7 | MGSDKIHHHHHHMIILDRNSYDLLSYLIKLEEPETVMSISKVLNQSRRKVYYHLDKINEALPSEIPKIISYPRIGILLSSQQKAACRTLLADLDDYSYVMSIQERMLLSITYIAIAKDRVTIEKLMQINAVSRNTILNDLNELRQRLSFEPYSIKLQATKSKGYYLDCHPLSKIQYLNKLLHTIYTDSNPNFIAMMRDKLRDFADLSSYFSDDISSFIRGELQVSQALLGKKINSQDIRFMVATLPYQLLSYQNLGLSEREQRDLLSEFSPIKERKEYEIARHLNENLKREFHIELDEIETSLIAVLLLSYRKDRDMHLESHDYDDMRRVLSYFIDAFELDYHVCFKHKQLLLNQLLTHCKALLFRKAYGIVSNNPLTDQIKDKYADLFAMTKVCLSILENAWSIKMNDDDIAYITIHIGGELVHSETKPTPPAVLTLVCDEGIGVQKLFMQQCKQYLPHSKIEAVLTSEQFYSVADIMAVDLVISTNDSLDTQLPTLFVHSILRDDDAIKLIRFAKQRGQTGQDDFDKKLETYIRHYVKNDSDCYVLKTKIEGLINEELLYDNNKR | not soluble
8 | MGSSHHHHHHSSGLVPRGSHMIVREGSAEILVPEVYHGPGKRGTGFYNADQKINRDITIEFIKKMGIRNVLDGFGGTGIRGIRISKETDSAVTISEVSPDSYRLIRDNVERNGSQASVINDSFECVLQHGAYEYVDVDPYGSPVPYLDAALMGVKRNGFLGVTATDQSALTGSVPHKTRIRYDALIKNDTFRHEMGIRLLIGYMAKRAASLGRFIDPLISIWHGHYYRVFVRVRKGFEGAGRMMQNLGYVNKHNLLSGIYQDMDEGPVWKGNLQDNAVAEAVLASAGHKAFNPEENRLLFCDLTDIARARHTSLPDIESVIDALSSSGHAASRTMFSPTGIKTDASCDLVESLMMDTLHRRSPA | soluble
9 | MLVDSFNRVIDYIRVSVTKQCNFRCQYCMPATPLNFFDNEELLPLDNVLEFLKIAIDEGVKKIRITGGEPLLRKGLDEFIAKLHAYNKEVELVLSTNGFLLKKMAKDLKNAGLAQVNVSLDSLKSDRVLKISQKDALKNTLEGIEESLKVGLKLKLNTVVIKSVNDDEILELLEYAKNRHIQIRYIEFMENTHAKSLVKGLKEREILDLIAQKYQIIEAEKPKQGSSKIYTLENGYQFGIIAPHSDDFCQSCNRIRLASDGKICPCLYYQDAIDAKEAIINKDTKNIKRLLKQSVINKPEKNMWNDKNSETPTRAFYYTGGLEHHHHHH | not soluble
10 | MGCAEEKKTDVRWATFNIRYDNPQDSLNNWQYRKDRVCQFIKDHELDIVGMQEVLHNQFQDLRAGLPEYDGIGVGRDDGKTAGEYAPLFYRKDKYEVLDSNTFWLAENPDSVGMMGWDAVCVRIATWAKFKDKATGKIFMAVNTHFDHVGEEARRQSALLIIRKIKEIVGERPAVVTGDFNVTDASDAYETITTNEFVMKDAYKTAARVTGVDYTFHDFARIPAEDCEKIDFIFVTPQVLVKSCEIPAEVPEALLSDHNPQLADLELEHHHHHH | not soluble
11 | MGSDKIHHHHHHMDGREIELKLALAPEDLARIAQRPCLSAGRLAEPTSKRLSSIYYDTSDHILASQGIAVRVRRTGSGFVQTVKTAGTSVSGLFDRDEWEVPLASPDLDAEQLRLTGLAAFADGELADLLTPVFSTEVDRVLIRLGGEGWEAEVALDRGALVVGDRREEISEVELELVSGTPAHLFRLATHIQAETAARPLCLSKSERGYSLAAGKTAPVVKAKAPILTPAMTVEESFRAIARACLEHLMLNERCLLATEAGEAIHQMRVAMRRMRSAIKVFKAVTEGPDLERIKDDLRWLLAHLGPARDADVFLSEIVDPVLAAHPGNAGLIALRAHWRKDRETKLAAAISAVKSKRYATMTLNLGRWVETGDWLTPSHGGARRRLAEPIATFAAGRVGKVVTRLLKEGGETLSRLSPEQRHAVRIRGKQVRYAGEFFASLVPRKSTKVYLSELAELQDVLGKLNDIAVAGPKLSGRGAGAGSSRAAGLIAGWHQSRRATLLNDADKCWKRWRALPLPWDEK | not soluble
12 | MHHHHHHENLYFQGSTSENITQKVVWVEESDKRSFLLDLLNATGKDSLTLVFVETKKGADSLEDFLYHEGYACTSIHGDRSQRDREEALHQFRSGKSPILVATAVAARGLDISNVKHVINFDLPSDIEEYVHRIGRTGRVGNLGLATSFFNERNINITKDLLDLLVEAKQEVPSWLENMAYEHHY | soluble
13 | GVSIRSMKNFYDWIKEFVRDQGEFIAQQSGWLELERSSYAKLIAQTISHVLNGGSLLVSADSSRHWFLNYILSNLNPKDLKERPLLSVIDFNASSFYPKNDANLSLATIEMTYQNPMFWHVGKIENEGLKTILLSKIPSFLWLFEELKEDCLLLKEHDSLLDYKLLQLFKLFENALFSVLYNKVTL | soluble
14 | MAHHHHHHMERRSEWVASLRSTLPQFSKRSAAPLERGNAAAILGPAPRRTLDKALSSHNTTSSLLLPSEWCEQATQRLITTLHGIVPPLQVQQTDYFLCSLIHPSYVQASTMRCESEALRRRVQQELRRTVCMPLELTMTGSKSLRLLRELTHYVEQGAAAAATSARARATLPAAPVAGRSEARDPSYGPSSWSSYPLDASWPELHSADSTAFVQAFQRAGLDSLVLYDKSFFAASSTLTDNISGAGSAEVSLAAFTALCGSIELVSGWCSLLQFVDRVASEQRGLERNTDGHE | not soluble
15 | MVAASKEFVFHHTFKDVSQLEDGDFFKSPEEIHYNAEWFILVIRTKDQLEAYLHCDNEKDDNVAWTVDAEFSLKIASSSGSYAMKFQKGCFDGFGLGWNDFVSWDSLTEDFLYDNSFTIEACVKITKMTGFSKDVLRSFDESEKRFSDVILVVGDEKFYVLKLFLASHSSYFNALFLGKFKEADQSEVTLQNIDPTDFQSLLEVLYGEPAIDDGTIDGVLLLAHMLDVTLAIRKCEEFLIEKSMKSMRELLKMANQYQLENLKVKFYFLKIPEN | not soluble
16 | MGHHHHHHSHMEFVTNYTLEELKKRFTELGLEPYRAKQVFRWVYKKFVTDFEKMTDLGKKHRELLKEHFAFHPLEKLDRVEAPDAVKYLFKTKDGHILETVLIKERDHYTLCVSSQIGCAVGCTFCATALDGLKRNLSTAEIIDQYLQVQQDLGEEKIRNVVFMGMGEPLANYENVRKAVEIMVSPEGLDLSKRRITISTSGIVAQIKRMAQDPVMKEVNLAVSLNAVSQKKREELMPLTKTNTLEELMEVLKNYPLPKYRRITLEYVLIKGVNDSPNDAERLAKLIGRHKKKFKVNLIPFNPDPNLPYERPALTDIMKFQKVLWKYGISNFVRFSKGVEVFGACGQLRTQRLQLQRV | soluble
17 | MSLQTFVIVGHVIPNNDMSPTLNKGDRVIVNKIKVTFNQLNNGDIITYRRGNEIYTSRIIAKPGQSMAFRQGQLYRDDRPVDASYAKNRKIKDFSLRNFKELDGDIIPPNNFVVLNDHDNNQHDSRQFGLIDKKDIIGNISLRYYPFSKWTIQFKSEGHHHHHH | soluble
18 | MFDVLMYLFETYIHNEAELRVDQDRLERDLTDAGFDREDIYNALLWLEKLADYQDGLAEPMQLASDPLSMRIYTVEECERLDASCRGFLLFLEQIQVLNLETREMVIERVLALDTAEFDLEDLKWVILMVLFNIPGCENAYQQMEELLFEVNEGMLH | not soluble
19 | MLPDVQLLKPEVPIGLSRVGATGIKKLVEVQREGKRPIILISTFDVFVDLPAHLKGVNLSRNFEVIDEVLETLTAKPIENIEDLVVEIADHLLKRHEYATKAEARMNSELIMRKRTPKTGQRTQEVVKIFGEATLGRDGSKVIMVGVEVTGITACPCAQELVKASSAERLAKMGFDEETIQKILDAIPVATHNQRGRATLKVQVTDSFKVPIAKLIDVAKSSMSYETYEILKREDELAVVEAAHRNTRFVEDGVRYMAMELLKTFPNAPDDILVFLRQENEESIHQHNVVAERFA | not soluble
20 | MFVYYIYTIIKSQSKSTPHHYHPCWSNSAAGLKKWGGFMNIKNNRRRRASRDAIENIFIELLQTKSLNEITVSDICKKAGLNRSTFYANYMDIYQLADTIRETLEDNLNDLYRSEIAGGYNSNDYLPLFRHIKENQPFYNTYFKLGYDNQYKIFKYDTALARDHFGNRFIDYHCEFFKSGITAIIKHWLSNGCLETPEEINGILMSEYRGRKMEET | not soluble
